Laboratory results published in patent US20120093835A1 (DECIMMUNE THERAPEUTICS, published 2012).
Values belong to the binder of their own block, whether it stands above or below them. Where no end group is shown, it is not given here.

Biological target: T1, N2 peptide (Ac-LMKNMDPLNDNV), N2 self-peptide of Mouse NMHC-IIB (592-603) (mouse (the filing says the region is …, not fully specified; printed as Ac-LMKNMDPLNDNV)
T1 peptide: Ac-LMKNMDPLNDNV
Test: not described (in vitro and in vivo binding of hybridoma antibody to N2 peptide)

- binding result: binds
B1: IgG^12A6 (12A6 IgG), antibody produced by murine B-cell hybridoma 12A6 (ATCC PTA-9392) (antibody, V domains shown)
VH: QVTLKESGPGILQPSQTLSLTCSFSGFSLSTFGIGVGWIRQPSGKGLEWLAHIWWNDNNYYNTSLKSRLTISKDTSNNQVFLKIASVDTADTATYYCARVGGINFSMDYWGQGTSVTVSS
VL: DIVMTQSASSLAVSAGEKVTMNCKSSQSVLYSSNQKNYLAWYQQKPGQSPKLLIYWASTRESGVPDRFTGSGSGTDFTLTISSVQAEDLAVYYCHQYLSSWTFGGGTKLEIKR
notes: also called 12A6 hybridoma antibody; anti-N2 antibody (12A6)

- binding result: binds
B2: IgG^21G6 (21G6 IgG), antibody produced by murine B-cell hybridoma 21G6 (ATCC PTA-9393) (antibody, V domains shown)
VH: QVQLQESGAELVKPGASVKLSCKASGYTFTSYYMYWVKQRPGQGLEWIGGINPSNGGTNFNEKFKSKATLTVDKSSSTAYMQLSSLTSEDSAVYYCTRWGYDREWFAYWGQGTLVTVSA
VL: DIVMTQAAPSVPVTPGESVSISCRSSKSLLHSNGNTYLYWFLQRPGQSPQVLIYRMSNLASGVPDRFSGSGSGTAFTLRISRVEAEDVGVYYCMQHLEYPFTFGSGTKLEIKR
notes: also called anti-N2 mAb
